Assay results from patent publication US20220259322A1 (WASHINGTON UNIVERSITY, published 2022).

T1: peptide 89
T1 construct: 12-mer from the C-terminus of GRP78
T1 peptide: LYGSAGPPPTGE

T2: peptide 90
T2 construct: 12-mer from the C-terminus of GRP78
T2 peptide: PPTGEEDTAEKD

T3: peptide 86
T3 construct: 12-mer from the C-terminus of GRP78
T3 peptide: IEDFKAKKKELE

T4: peptide 87
T4 construct: 12-mer from the C-terminus of GRP78
T4 peptide: KKELEEIVQPII

T5: peptide 88
T5 construct: 12-mer from the C-terminus of GRP78
T5 peptide: VQPIISKLYGSA


Legend:
C-terminal GRP78 peptide = target: T6, C-terminal GRP78 peptide; experiment: ELISA on C-terminal GRP78 peptide
T6 construct: name from the legend, the sheet prints only 'GRP78 Hybridoma ELISA'
T6 sequence (P11021 other isoform, or with tags, fused parts or gaps): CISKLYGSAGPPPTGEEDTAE

[1] = target: T7, 78-kDa glucose-regulated protein (GRP78) (UniProt P11021 19-654); experiment: flow cytometry, A549 cells, gMFI minus secondary only, 4PL fit
T7 construct: 'peptides 86-90' in Biacore; also called BiP; HSP5a
T7 sequence (P11021 19-654 limits assumed): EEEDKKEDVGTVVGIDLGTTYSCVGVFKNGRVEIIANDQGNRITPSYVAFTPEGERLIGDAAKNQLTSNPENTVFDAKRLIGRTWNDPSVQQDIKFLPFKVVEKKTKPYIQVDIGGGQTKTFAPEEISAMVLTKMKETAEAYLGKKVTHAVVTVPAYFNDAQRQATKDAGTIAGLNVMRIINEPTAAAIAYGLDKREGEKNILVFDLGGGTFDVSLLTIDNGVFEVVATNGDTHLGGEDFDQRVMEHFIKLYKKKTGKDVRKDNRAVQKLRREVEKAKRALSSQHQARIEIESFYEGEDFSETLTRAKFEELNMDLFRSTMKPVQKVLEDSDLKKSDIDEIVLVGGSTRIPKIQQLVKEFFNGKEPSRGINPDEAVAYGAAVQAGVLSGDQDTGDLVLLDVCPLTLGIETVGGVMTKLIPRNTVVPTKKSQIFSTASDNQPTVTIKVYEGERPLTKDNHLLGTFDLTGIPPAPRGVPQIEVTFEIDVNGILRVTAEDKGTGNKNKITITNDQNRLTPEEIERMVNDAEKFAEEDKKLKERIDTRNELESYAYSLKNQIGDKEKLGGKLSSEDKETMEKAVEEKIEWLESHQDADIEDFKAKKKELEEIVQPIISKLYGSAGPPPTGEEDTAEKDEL
Procedure: (§1) FIG. 7A-7B show graphs of flowcytometry data for the cell surface binding of GRP78 antibodies. […] Binding conditions: 0.1×10⁶ cells incubated with 3-fold dilutions of antibody started at 2.22 μM. Cells were washed 2× with FACS buffer. Stained with secondary antibody. Washed twice and analyzed in FACS buffer by flow cytometer FACS Canto II (BD). Geometric mean fluorescence intensity was fitted using the “One site-specific binding” in Graphpad Prism software.
(§2) A Flow cytometry assay for cell surface binding of 6F8 antibody to A549 cells was done (FIG. 7A-7B). Binding conditions: 0.1×10⁶ cells incubated with 3-fold dilutions of antibody started at 2.22 μM. Cells were washed 2× with FACS buffer. Stained with secondary antibody. Washed twice and analyzed in FACS buffer by flow cytometer FACS Canto II (BD). Geometric mean fluorescence intensity was fitted using the “One site-specific binding” in Graphpad Prism software. Graph showing the same data as in A fitted using the “Sigmoidal, 4PL, X is log(concentration)” in Graphpad Prism software (FIG. 7B).

[2] = target: T7, 78-kDa glucose-regulated protein (GRP78); experiment: flow cytometry, H460 cells, gMFI minus secondary only, 4PL fit
Procedure: FIG. 9A-9B are graphs showing the cell surface binding of 6F8 to H460 cells. […] Binding conditions: 0.1×10^6 cells incubated with 3-fold dilutions of antibody started at 0.7 μM. Cells were washed 2× with FACS buffer. Stained with secondary antibody. Washed twice and analyzed in FACS buffer by flow cytometer FACS Canto II (BD). […]

peptide 89 [3] = target: T1, peptide 89; experiment: Biacore T200, 6F8 immobilized on CM5 chip, peptide as analyte, blank-subtracted relative response
Procedure: (§3) FIG. 5A-5B show the epitope mapping of 6F8 antibody. FIG. 5A depicts a graph of the relative response binding. Epitope mapping was performed using Biacore T200. 6F8 was immobilized on the CM5 sensor chip and peptides 86-90 (overlapping peptides in the immunogen region of 6F8) were passed as analyte. Relative binding response (response on blank channel subtracted from the 6F8 immobilized channel) of each peptide to 6F8 was analyzed using the BIAevaluation software. Cut-off for nonbinding peptides is 0 RU. […] The figure was generated using Pymol software (SEQ ID NO: 71).
(§4) Seven peptides were synthesized from the c-terminus of GRP78. Each peptide was a 12-mer with 5 amino acid overlap. The sequences of the peptides are shown above. Each of the peptide was coated in duplicate on nitrocellulose membrane and incubated with 7A9 antibody. After washing, the blot was developed using chemiluminescence. The arrows indicate positive spot, FIG. 4. 7A9 epitope: SEQ ID NO: 70 ([…] . . . EDTAE). FIG. 5A-5B Epitope mapping of 6F8 antibody was performed using Biacore T200. 6F8 was immobilized on the CM5 sensor chip and peptides 86-90 (overlapping peptides in the immunogen region of 6F8) were passed as analyte. Relative binding response (response on blank channel subtracted from the 6F8 immobilized channel) of each peptide to 6F8 was analyzed using the BIAevaluation software. Cut-off for nonbinding peptides is 0 RU. Three-dimensional model of GRP78 protein indicating the epitope sequence on the protein in magenta color. The figure was generated using Pymol software.

peptide 90 [4] = target: T2, peptide 90; experiment: as above
Procedure: as §3, §4

peptide 86 [5] = target: T3, peptide 86; experiment: as above
Procedure: as §3, §4

peptide 87 [6] = target: T4, peptide 87; experiment: as above
Procedure: as §3, §4

peptide 88 = target: T5, peptide 88; experiment: as above
Procedure: as §3, §4

[7] = target: T7, 78-kDa glucose-regulated protein (GRP78); experiment: flow cytometry, A549 cells, gMFI minus secondary only, one site-specific binding fit; no unit beside the number, x axis in nM
Procedure: as §1, §2

[8] = target: T7, 78-kDa glucose-regulated protein (GRP78); experiment: flow cytometry, H460 cells, gMFI minus secondary only, one site-specific binding fit; no unit beside the number, x axis in nM
Procedure: FIG. 9A-9B are graphs showing the cell surface binding of 6F8 to H460 cells. […] Binding conditions: 0.1×10^6 cells incubated with 3-fold dilutions of antibody started at 0.7 μM. Cells were washed 2× with FACS buffer. Stained with secondary antibody. Washed twice and analyzed in FACS buffer by flow cytometer FACS Canto II (BD). Geometric mean fluorescence intensity was fitted using the One site-specific binding in Graphpad Prism software.

peptide 90 [9] = target: T2, peptide 90; experiment: peptide dot blot on nitrocellulose, chemiluminescence
Procedure: Seven peptides were synthesized from the c-terminus of GRP78. Each peptide was a 12-mer with 5 amino acid overlap. Each of the peptide was coated in duplicate on nitrocellulose membrane and incubated with 7A9 antibody. After washing, the blot was developed using chemiluminescence. The arrows indicate positive spot.
as §4

peptide 89 [10] = target: T1, peptide 89; experiment: Biacore T200, 7A9 immobilized on CM5 chip, peptide as analyte, blank-subtracted relative response
Procedure: as §3, with “6A” for “5A-5B show the epitope mapping of 6F8 antibody. FIG. 5A”, “binding of 7A9.” for “binding.”, “7A9” for “6F8”, “7A9)” for “6F8)”, “70).” for “71).”
(§5) FIG. 6A-6B Epitope mapping of 7A9 antibody was performed using Biacore T200. 7A9 was immobilized on the CM5 sensor chip and peptides 86-90 (overlapping peptides in the immunogen region of 7A9) were passed as analyte. Relative binding response (response on blank channel subtracted from the 7A9 immobilized channel) of each peptide to 7A9 was analyzed using the BIAevaluation software. Cut-off for nonbinding peptides is 0 RU. Three-dimensional model of GRP78 protein indicating the epitope sequence on the protein in red color. The figure was generated using Pymol software.

peptide 86 [11] = target: T3, peptide 86; experiment: as above
Procedure: as §3, with “6A” for “5A-5B show the epitope mapping of 6F8 antibody. FIG. 5A”, “binding of 7A9.” for “binding.”, “7A9” for “6F8”, “7A9)” for “6F8)”, “70).” for “71).”
as §5

peptide 87 [12] = target: T4, peptide 87; experiment: as above
Procedure: as §3, with “6A” for “5A-5B show the epitope mapping of 6F8 antibody. FIG. 5A”, “binding of 7A9.” for “binding.”, “7A9” for “6F8”, “7A9)” for “6F8)”, “70).” for “71).”
as §5

[13] = target: T7, 78-kDa glucose-regulated protein (GRP78); experiment: flow cytometry, H460 cells, gMFI, 4PL fit; x axis of panel B is printed 'Log10 [6F8] nM' although title and legend say 7A9
Procedure: FIG. 11A-11B show flow cytometry for cell surface binding of 7A9 antibody to H460 cells. FIG. 11A is the flow cytometry assay for cell surface binding of 7A9 antibody to H460 cells. Binding conditions: 0.1×10⁶ cells incubated with 3-fold dilutions of antibody started at 1.0 μM. Cells were washed 2× with FACS buffer. Stained with secondary antibody. Washed twice and analyzed in FACS buffer by flow cytometer FACS Canto II (BD). […]

[14] = target: T7, 78-kDa glucose-regulated protein (GRP78); experiment: flow cytometry, H460 cells, gMFI, one site-specific binding fit; no unit beside the number, x axis in nM; all points lie at gMFI about 1000-1400, so the fit rests on no point of the rising part
Procedure: FIG. 11A-11B show flow cytometry for cell surface binding of 7A9 antibody to H460 cells. FIG. 11A is the flow cytometry assay for cell surface binding of 7A9 antibody to H460 cells. Binding conditions: 0.1×10⁶ cells incubated with 3-fold dilutions of antibody started at 1.0 μM. Cells were washed 2× with FACS buffer. Stained with secondary antibody. Washed twice and analyzed in FACS buffer by flow cytometer FACS Canto II (BD). Geometric mean fluorescence intensity was fitted using the One site-specific binding in Graphpad Prism software.

EC50 (read off the curve) (C-terminal GRP78 peptide) | EC50 (read off the curve) [1] | EC50 (read off the curve) [2] | binding result (peptide 89 [3]) | binding result (peptide 90 [4]) | binding result (peptide 86 [5]) | binding result (peptide 87 [6]) | binding result (peptide 88) | Kd [7] | Kd [8] | binding result (peptide 90 [9]) | binding result (peptide 89 [10]) | binding result (peptide 86 [11]) | binding result (peptide 87 [12]) | EC50 (read off the curve) [13] | Kd [14] | Binder
~1000 nM | ~50 nM | ~100 nM | no binding | binds | no binding | no binding | no binding | 16.4 nM | 35.8 nM |  |  |  |  |  |  | 6F8 anti-GRP78 mouse monoclonal antibody (antibody, V domains shown) VH: EVQLVESGGGLVRPKGSLKLSCAASGFTLNTSAMNWVRQVPGKGLEWVGRIRSKNYNYATYYADSVKDRFTIFRDDSQNMLYLQMNNLKTEDTAMYYCVRPPGFAYWGQGTLVTVSA VL: DIQMTQSPSSLSASLGERVSLTCRTSQEISGHLSWLQQKPDGTIKRLIYAASSLDSGVPKRFSGSRSGSDYSLTISSLESEDFADYYCLQYSSYPYTFGGGTKLEIK
 |  |  |  |  |  |  |  |  |  | binds | no binding | no binding | no binding | ~40 nM | 0.108 nM | 7A9 anti-GRP78 mouse monoclonal antibody (antibody, V domains shown) VH: EVQLVETGGGLVQPKGSLKLSCAVSGITFNINAMNWVRQAPGKGLEWVARIRSKSNNYATYYADSVKDRFTISRDDSQSMLYLQMNNLKTEDTAMYYCVRDITRAGYFDVWGAGTTVTVSS VL: QIVLTQSPAIMSASPGEKVTITCSASSSVIYMHWFQQKPGTSPKLWIYSTSNLASGVPARFSGSGSGTSYSLTISRMEAEDAATYYCQQRSSYPLTFGAGTKLELK
